Assay results from article PMC8908248 (The Journal of Biological Chemistry, 2022).

Legend:
[1] = target: homodimeric sulfite oxidase Mo domain (Mo/Mo) (human); assay: SEC
SEC = target: the molecule itself; assay: SEC

Molecule | stoichiometry N [1] | stoichiometry N (SEC)
homodimeric sulfite oxidase Mo domain (Mo/Mo) (domain or fragment) | 2 | –
mature full-length human sulfite oxidase (WT SOX/SOX homodimer) (enzyme, UniProt P51687 80-545, looked up) ESTHIYTKEEVSSHTSPETGIWVTLGSEVFDVTEFVDLHPGGPSKLMLAAGGPLEPFWALYAVHNQSHVRELLAQYKIGELNPEDKVAPTVETSDPYADDPVRHPALKVNSQRPFNAEPPPELLTENYITPNPIFFTRNHLPVPNLDPDTYRLHVVGAPGGQSLSLSLDDLHNFPRYEITVTLQCAGNRRSEMTQVKEVKGLEWRTGAISTARWAGARLCDVLAQAGHQLCETEAHVCFEGLDSDPTGTAYGASIPLARAMDPEAEVLLAYEMNGQPLPRDHGFPVRVVVPGVVGARHVKWLGRVSVQPEESYSHWQRRDYKGFSPSVDWETVDFDSAPSIQELPVQSAITEPRDGETVESGEVTIKGYAWSGGGRAVIRVDVSLDGGLTWQVAKLDGEEQRPRKAWAWRLWQLKAPVPAGQKELNIVCKAVDDGYNVQPDTVAPIWNLRGVLSNAWHRVHVYVSP | – | 2
